Results as given in IntAct's records for PubMed 11641419.

B1: Prolactin-releasing peptide receptor (Homo sapiens), P49683 (parent)
chain: MASSTTRGPRVSDLFSGLPPAVTTPANQSAEASAGNGSVAGADAPAVTPFQSLQLVHQLKGLIVLLYSVVVVVGLVGNCLLVLVIARVRRLHNVTNFLIGNLALSDVLMCTACVPLTLAYAFEPRGWVFGGGLCHLVFFLQPVTVYVSVFTLTTIAVDRYVVLVHPLRRRISLRLSAYAVLAIWALSAVLALPAAVHTYHVELKPHDVRLCEEFWGSQERQRQLYAWGLLLVTYLLPLLVILLSYVRVSVKLRNRVVPGCVTQSQADWDRARRRRTFCLLVVIVVVFAVCWLPLHVFNLLRDLDPHAIDPYAFGLVQLLCHWLAMSSACYNPFIYAWLHDSFREELRKLLVAWPRKIAPHGQNMTVSVVI

Variants of: B1
Conditions: with grip1_human GRIP1, Q9Y3R0
Chain of grip1_human GRIP1, Q9Y3R0 (Q9Y3R0 whole entry): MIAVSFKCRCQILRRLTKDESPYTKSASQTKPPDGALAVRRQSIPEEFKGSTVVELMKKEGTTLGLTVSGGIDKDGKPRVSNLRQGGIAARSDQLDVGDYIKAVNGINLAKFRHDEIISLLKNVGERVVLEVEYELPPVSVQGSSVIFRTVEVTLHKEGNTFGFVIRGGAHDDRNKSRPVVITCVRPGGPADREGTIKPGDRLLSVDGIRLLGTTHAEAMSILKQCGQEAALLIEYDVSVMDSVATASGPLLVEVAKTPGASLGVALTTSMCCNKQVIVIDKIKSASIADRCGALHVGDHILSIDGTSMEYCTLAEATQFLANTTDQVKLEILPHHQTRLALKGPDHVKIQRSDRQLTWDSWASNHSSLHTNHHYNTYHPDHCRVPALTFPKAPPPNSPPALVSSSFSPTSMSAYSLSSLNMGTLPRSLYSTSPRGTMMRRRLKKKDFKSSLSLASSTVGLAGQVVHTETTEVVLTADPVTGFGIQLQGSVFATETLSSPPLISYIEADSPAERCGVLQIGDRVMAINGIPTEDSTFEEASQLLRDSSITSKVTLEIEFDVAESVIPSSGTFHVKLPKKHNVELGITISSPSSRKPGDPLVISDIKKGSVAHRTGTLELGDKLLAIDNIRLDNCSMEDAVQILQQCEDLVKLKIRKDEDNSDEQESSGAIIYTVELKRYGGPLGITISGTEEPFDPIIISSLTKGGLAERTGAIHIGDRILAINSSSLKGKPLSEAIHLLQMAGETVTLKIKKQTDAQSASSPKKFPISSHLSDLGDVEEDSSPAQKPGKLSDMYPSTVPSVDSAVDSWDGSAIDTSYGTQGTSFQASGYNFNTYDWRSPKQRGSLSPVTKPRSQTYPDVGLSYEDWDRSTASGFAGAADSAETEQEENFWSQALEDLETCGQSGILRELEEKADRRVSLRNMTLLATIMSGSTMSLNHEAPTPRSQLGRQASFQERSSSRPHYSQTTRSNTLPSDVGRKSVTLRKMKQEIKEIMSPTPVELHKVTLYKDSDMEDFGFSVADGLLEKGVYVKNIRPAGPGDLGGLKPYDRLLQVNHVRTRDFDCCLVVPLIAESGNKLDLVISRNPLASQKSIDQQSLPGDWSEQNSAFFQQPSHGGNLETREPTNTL

Variant	effect of a mutation on the interaction
S367A	disrupting interaction
I370A	disrupting interaction
V368A	disrupting interaction
